From patent US20150344570A1 (published 2015)

T1: FcγRIIb (human, UniProt P31994 43-217)
T1 construct: extracellular domain; Soluble His-tagged extracellular domain expressed in FreeStyle293 cells; analyte in Biacore; also called FcgRIIb; 2b; not shown: His tag attached to the C terminus
T1 sequence (looked up): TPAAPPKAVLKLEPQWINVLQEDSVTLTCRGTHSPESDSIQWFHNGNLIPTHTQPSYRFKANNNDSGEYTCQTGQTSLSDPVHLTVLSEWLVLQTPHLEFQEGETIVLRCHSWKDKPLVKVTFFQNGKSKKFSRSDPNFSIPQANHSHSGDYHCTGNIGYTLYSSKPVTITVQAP

T2: FcγRIIa R (human, UniProt P12318 34-217)
T2 construct: extracellular domain; Soluble His-tagged extracellular domain expressed in FreeStyle293 cells; analyte in Biacore; also called FcgRIIa R; FcgRIIaR; not shown: His tag attached to the C terminus
T2 sequence (looked up): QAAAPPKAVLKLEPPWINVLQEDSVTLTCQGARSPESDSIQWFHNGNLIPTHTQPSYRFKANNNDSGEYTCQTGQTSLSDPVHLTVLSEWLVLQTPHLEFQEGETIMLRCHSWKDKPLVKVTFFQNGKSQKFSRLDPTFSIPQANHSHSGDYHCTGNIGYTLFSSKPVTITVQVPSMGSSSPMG


Experiments:
FcγRIIb = molecular target: T1, FcγRIIb; experiment: SPR (Biacore), antibody captured via antigen peptide, FcγR as analyte
Method: (§1) The heterodimerized antibodies He Abs in which one of the H chains was introduced with an alteration were assayed for their binding activities to each activating FcγR and inhibitory FcγR according to the method described in Example 4. […] The activating FcγRs in FIGS. 26, 27, 28, and 29 are FcγRIa, FcγRIIa (R), FcγRIIa (H), and FcγRIIIa, respectively.
(§2) Analysis of interaction between objective antibody and the FcγR was carried out using Biacore T100 (GE Healthcare). HBS-EP+ (GE Healthcare) was used as the running buffer, and the measurement temperature was set to 25° C. Chips produced by immobilizing the antigen peptide by the amine coupling method to a Series S Sencor Chip CM5 (GE Healthcare), or alternatively, chips produced by allowing preliminarily biotinylated antigen peptides to interact with and immobilize onto a Series S Sensor Chip SA (certified) (GE Healthcare) were used. Antibodies of interest were captured onto an antigen peptide-immobilized chip, and allowed to interact to each FcγR diluted with running buffer. To regenerate and repeatedly use the chip, the antibodies captured on the chip were washed off by reacting 10 mM glycine-HCl, pH 1.5.

FcγRIIa R [1] = molecular target: T2, FcγRIIa R; experiment: as above
Method: as §1, §2

FcγRIIa R [2] = molecular target: T2, FcγRIIa R; experiment: ratio of He/Con_2aR to He/Con_2b (binding to FcγRIIb as reference); SPR

Row | He/Con_2b (IIb binding relative to GpH7-A5/GpH7-B3/GpL16-k0) (FcγRIIb) | He/Con_2aR (IIaR binding relative to GpH7-A5/GpH7-B3/GpL16-k0) (FcγRIIa R [1]) | He_2aR/2b (IIaR/IIb) (FcγRIIa R [2]) | Binder
1 | 41.7 % of control (control = 100) | 55 % of control (control = 100) | 1.32 | GpH7-A5/GpH7-B3 variant P329_01G/GpL16-k0 (antibody, human IgG1, kappa, Heterodimerized anti-glypican-3 IgG1 antibody; alteration only in the GpH7-B3 H chain; position in EU numbering; also called He Ab) heavy 1: not shown heavy 2: not shown light: DIVMTQSPLSLPVTPGEPASISCQASESLVHSNRNTYLHWYLQKPGQSPQLLIYKVSNRFSGVPDRFSGSGSGTDFTLKISRVEAEDVGVYYCSQNTHVPPTFGQGTKVEIERTVAAPSVFIFPPSDEQLKSGTASVVCLLNNFYPREAKVQWKVDNALQSGNSQESVTEQDSKDSTYSLSSTLTLSKADYEKHKVYACEVTHQGLSSPVTKSFNRGEC
2 | 55.6 % of control (control = 100) | 70.9 % of control (control = 100) | 1.27 | GpH7-A5/GpH7-B3 variant A330_09D/GpL16-k0 (antibody, human IgG1, kappa, Heterodimerized anti-glypican-3 IgG1 antibody; alteration only in the GpH7-B3 H chain; position in EU numbering; also called He Ab) heavy 1: not shown heavy 2: not shown light: DIVMTQSPLSLPVTPGEPASISCQASESLVHSNRNTYLHWYLQKPGQSPQLLIYKVSNRFSGVPDRFSGSGSGTDFTLKISRVEAEDVGVYYCSQNTHVPPTFGQGTKVEIERTVAAPSVFIFPPSDEQLKSGTASVVCLLNNFYPREAKVQWKVDNALQSGNSQESVTEQDSKDSTYSLSSTLTLSKADYEKHKVYACEVTHQGLSSPVTKSFNRGEC
3 | 41.3 % of control (control = 100) | 60.8 % of control (control = 100) | 1.47 | GpH7-A5/GpH7-B3 variant A330_13S/GpL16-k0 (antibody, human IgG1, kappa, Heterodimerized anti-glypican-3 IgG1 antibody; alteration only in the GpH7-B3 H chain; position in EU numbering; also called He Ab) heavy 1: not shown heavy 2: not shown light: DIVMTQSPLSLPVTPGEPASISCQASESLVHSNRNTYLHWYLQKPGQSPQLLIYKVSNRFSGVPDRFSGSGSGTDFTLKISRVEAEDVGVYYCSQNTHVPPTFGQGTKVEIERTVAAPSVFIFPPSDEQLKSGTASVVCLLNNFYPREAKVQWKVDNALQSGNSQESVTEQDSKDSTYSLSSTLTLSKADYEKHKVYACEVTHQGLSSPVTKSFNRGEC
4 | 64.4 % of control (control = 100) | 84.1 % of control (control = 100) | 1.31 | GpH7-A5/GpH7-B3 variant N325_02A/GpL16-k0 (antibody, human IgG1, kappa, Heterodimerized anti-glypican-3 IgG1 antibody; alteration only in the GpH7-B3 H chain; position in EU numbering; also called He Ab) heavy 1: not shown heavy 2: not shown light: DIVMTQSPLSLPVTPGEPASISCQASESLVHSNRNTYLHWYLQKPGQSPQLLIYKVSNRFSGVPDRFSGSGSGTDFTLKISRVEAEDVGVYYCSQNTHVPPTFGQGTKVEIERTVAAPSVFIFPPSDEQLKSGTASVVCLLNNFYPREAKVQWKVDNALQSGNSQESVTEQDSKDSTYSLSSTLTLSKADYEKHKVYACEVTHQGLSSPVTKSFNRGEC
5 | 20.3 % of control (control = 100) | 30.3 % of control (control = 100) | 1.5 | GpH7-A5/GpH7-B3 variant I336_20W/GpL16-k0 (antibody, human IgG1, kappa, Heterodimerized anti-glypican-3 IgG1 antibody; alteration only in the GpH7-B3 H chain; position in EU numbering; also called He Ab) heavy 1: not shown heavy 2: not shown light: DIVMTQSPLSLPVTPGEPASISCQASESLVHSNRNTYLHWYLQKPGQSPQLLIYKVSNRFSGVPDRFSGSGSGTDFTLKISRVEAEDVGVYYCSQNTHVPPTFGQGTKVEIERTVAAPSVFIFPPSDEQLKSGTASVVCLLNNFYPREAKVQWKVDNALQSGNSQESVTEQDSKDSTYSLSSTLTLSKADYEKHKVYACEVTHQGLSSPVTKSFNRGEC
6 | 10.4 % of control (control = 100) | 16.2 % of control (control = 100) | 1.57 | GpH7-A5/GpH7-B3 variant N325_11K/GpL16-k0 (antibody, human IgG1, kappa, Heterodimerized anti-glypican-3 IgG1 antibody; alteration only in the GpH7-B3 H chain; position in EU numbering; also called He Ab) heavy 1: not shown heavy 2: not shown light: DIVMTQSPLSLPVTPGEPASISCQASESLVHSNRNTYLHWYLQKPGQSPQLLIYKVSNRFSGVPDRFSGSGSGTDFTLKISRVEAEDVGVYYCSQNTHVPPTFGQGTKVEIERTVAAPSVFIFPPSDEQLKSGTASVVCLLNNFYPREAKVQWKVDNALQSGNSQESVTEQDSKDSTYSLSSTLTLSKADYEKHKVYACEVTHQGLSSPVTKSFNRGEC
7 | 52.4 % of control (control = 100) | 74.9 % of control (control = 100) | 1.43 | GpH7-A5/GpH7-B3 variant A330_03V/GpL16-k0 (antibody, human IgG1, kappa, Heterodimerized anti-glypican-3 IgG1 antibody; alteration only in the GpH7-B3 H chain; position in EU numbering; also called He Ab) heavy 1: not shown heavy 2: not shown light: DIVMTQSPLSLPVTPGEPASISCQASESLVHSNRNTYLHWYLQKPGQSPQLLIYKVSNRFSGVPDRFSGSGSGTDFTLKISRVEAEDVGVYYCSQNTHVPPTFGQGTKVEIERTVAAPSVFIFPPSDEQLKSGTASVVCLLNNFYPREAKVQWKVDNALQSGNSQESVTEQDSKDSTYSLSSTLTLSKADYEKHKVYACEVTHQGLSSPVTKSFNRGEC
